# Where no end group is shown, it is not given here.
# T1: CCR10 (UniProt P46092 1-362)
# T1 sequence (looked up): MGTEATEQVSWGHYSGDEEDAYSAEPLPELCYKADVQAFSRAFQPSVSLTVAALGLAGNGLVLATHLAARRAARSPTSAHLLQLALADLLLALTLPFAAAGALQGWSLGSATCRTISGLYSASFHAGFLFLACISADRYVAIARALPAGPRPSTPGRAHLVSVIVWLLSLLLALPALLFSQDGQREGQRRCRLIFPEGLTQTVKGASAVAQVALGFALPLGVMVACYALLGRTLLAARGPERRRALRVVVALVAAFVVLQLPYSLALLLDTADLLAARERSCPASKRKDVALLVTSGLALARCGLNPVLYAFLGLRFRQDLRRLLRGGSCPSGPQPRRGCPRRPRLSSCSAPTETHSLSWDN
# T2: TRHR (UniProt P34981 1-398)
# T2 sequence (looked up): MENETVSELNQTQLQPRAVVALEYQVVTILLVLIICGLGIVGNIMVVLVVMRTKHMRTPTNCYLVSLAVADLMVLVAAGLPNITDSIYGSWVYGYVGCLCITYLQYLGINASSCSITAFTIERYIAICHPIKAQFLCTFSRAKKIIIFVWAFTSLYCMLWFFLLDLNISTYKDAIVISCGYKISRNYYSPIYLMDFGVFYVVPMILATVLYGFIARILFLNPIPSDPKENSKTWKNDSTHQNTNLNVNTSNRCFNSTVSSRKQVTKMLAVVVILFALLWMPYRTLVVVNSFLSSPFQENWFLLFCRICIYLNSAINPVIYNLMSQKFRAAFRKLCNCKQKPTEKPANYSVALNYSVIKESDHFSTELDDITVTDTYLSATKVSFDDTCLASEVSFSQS
# T3: NPBWR1 (UniProt P48145 1-328)
# T3 sequence (looked up): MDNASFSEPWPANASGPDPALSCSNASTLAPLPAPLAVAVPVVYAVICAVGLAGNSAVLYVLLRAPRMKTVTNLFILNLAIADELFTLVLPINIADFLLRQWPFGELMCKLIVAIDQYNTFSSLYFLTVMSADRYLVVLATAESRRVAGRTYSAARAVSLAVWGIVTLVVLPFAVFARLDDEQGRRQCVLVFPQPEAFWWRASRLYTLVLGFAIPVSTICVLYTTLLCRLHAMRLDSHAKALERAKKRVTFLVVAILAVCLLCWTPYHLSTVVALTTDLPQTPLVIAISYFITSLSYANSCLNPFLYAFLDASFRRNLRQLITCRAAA
# T4: TACR2 (UniProt P21452 1-398)
# T4 sequence (looked up): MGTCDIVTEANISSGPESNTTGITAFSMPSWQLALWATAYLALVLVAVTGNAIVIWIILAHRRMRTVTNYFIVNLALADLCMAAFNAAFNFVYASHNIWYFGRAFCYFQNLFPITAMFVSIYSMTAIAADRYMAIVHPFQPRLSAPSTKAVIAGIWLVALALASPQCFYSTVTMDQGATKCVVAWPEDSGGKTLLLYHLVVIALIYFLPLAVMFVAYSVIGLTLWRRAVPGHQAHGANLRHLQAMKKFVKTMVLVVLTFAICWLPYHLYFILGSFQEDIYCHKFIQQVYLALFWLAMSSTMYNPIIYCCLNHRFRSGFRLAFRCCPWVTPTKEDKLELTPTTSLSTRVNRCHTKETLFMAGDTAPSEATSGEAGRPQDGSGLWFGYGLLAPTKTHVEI
# T5: GPR119 (UniProt Q8TDV5 1-335)
# T5 sequence (looked up): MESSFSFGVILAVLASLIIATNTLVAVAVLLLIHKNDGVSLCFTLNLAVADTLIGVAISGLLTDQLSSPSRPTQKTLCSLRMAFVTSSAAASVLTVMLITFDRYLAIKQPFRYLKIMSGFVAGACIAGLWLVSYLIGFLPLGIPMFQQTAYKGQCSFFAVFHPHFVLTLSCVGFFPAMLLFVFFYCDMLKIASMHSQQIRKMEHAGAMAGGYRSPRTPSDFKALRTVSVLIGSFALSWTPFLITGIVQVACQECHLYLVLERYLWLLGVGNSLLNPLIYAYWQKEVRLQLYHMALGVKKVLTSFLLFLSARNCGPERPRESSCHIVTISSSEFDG
# T6: PRLHR (UniProt P49683 1-370)
# T6 sequence (looked up): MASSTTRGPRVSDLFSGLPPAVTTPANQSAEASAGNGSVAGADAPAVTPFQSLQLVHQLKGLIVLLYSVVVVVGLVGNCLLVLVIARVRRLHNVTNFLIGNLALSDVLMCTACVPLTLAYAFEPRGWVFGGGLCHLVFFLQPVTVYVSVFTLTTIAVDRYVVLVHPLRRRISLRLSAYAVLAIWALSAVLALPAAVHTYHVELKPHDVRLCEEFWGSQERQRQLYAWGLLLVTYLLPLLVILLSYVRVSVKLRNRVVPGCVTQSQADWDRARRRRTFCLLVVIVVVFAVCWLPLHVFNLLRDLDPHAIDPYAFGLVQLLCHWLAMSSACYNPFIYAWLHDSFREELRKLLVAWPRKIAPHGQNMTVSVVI
# Key:
# Test in all cases: cell-based or functional assay
# [1] = biological target: HRH1 (UniProt P35367 1-487)
# [2] = biological target: EDG5 (UniProt O95136 1-353)
# [3] = biological target: OPRL1 (UniProt P41146 1-370)
# [4] = biological target: GPR35 (UniProt Q9HC97 1-309, limits assumed)
# [5] = biological target: T1, CCR10
# [6] = biological target: CALCRL-RAMP1 (UniProt Q16602 23-461; O60894 27-148)
# [7] = biological target: OPRK1 (UniProt P41145 1-380)
# [8] = biological target: GHSR (UniProt Q92847 1-366)
# [9] = biological target: T2, TRHR
# [10] = biological target: T3, NPBWR1
# [11] = biological target: T4, TACR2
# [12] = biological target: CCR8 (UniProt P51685 1-355)
# [13] = biological target: CXCR6 (UniProt O00574 1-342)
# [14] = biological target: T5, GPR119
# [15] = biological target: P2RY1 (UniProt P47900 1-373)
# [16] = biological target: T6, PRLHR
# GHSR, sequence (Q92847 whole entry): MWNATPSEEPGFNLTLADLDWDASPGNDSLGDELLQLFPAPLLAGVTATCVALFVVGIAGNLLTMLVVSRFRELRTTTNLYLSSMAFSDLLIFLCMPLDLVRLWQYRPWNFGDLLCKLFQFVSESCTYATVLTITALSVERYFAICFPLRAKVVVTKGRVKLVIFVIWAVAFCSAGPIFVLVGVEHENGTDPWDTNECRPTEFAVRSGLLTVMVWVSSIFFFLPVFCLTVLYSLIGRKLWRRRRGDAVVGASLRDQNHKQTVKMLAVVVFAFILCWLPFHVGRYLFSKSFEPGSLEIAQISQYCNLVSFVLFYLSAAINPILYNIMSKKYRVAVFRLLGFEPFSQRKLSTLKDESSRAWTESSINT
# CALCRL-RAMP1, sequence (Q16602 23-461 limits assumed, chain 1 of 2): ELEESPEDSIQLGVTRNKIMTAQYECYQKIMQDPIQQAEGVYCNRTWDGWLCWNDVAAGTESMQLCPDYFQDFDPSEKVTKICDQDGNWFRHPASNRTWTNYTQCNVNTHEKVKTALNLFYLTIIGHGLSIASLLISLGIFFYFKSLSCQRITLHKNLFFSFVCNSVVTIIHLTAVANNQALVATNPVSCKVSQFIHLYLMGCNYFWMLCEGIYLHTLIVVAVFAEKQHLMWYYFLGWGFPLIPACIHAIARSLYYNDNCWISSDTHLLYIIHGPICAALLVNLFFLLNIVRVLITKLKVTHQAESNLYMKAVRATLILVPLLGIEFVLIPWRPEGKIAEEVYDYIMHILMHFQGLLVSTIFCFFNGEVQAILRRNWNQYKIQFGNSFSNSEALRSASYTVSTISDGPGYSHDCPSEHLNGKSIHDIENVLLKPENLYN
# CALCRL-RAMP1, sequence (O60894 27-148 limits assumed, chain 2 of 2): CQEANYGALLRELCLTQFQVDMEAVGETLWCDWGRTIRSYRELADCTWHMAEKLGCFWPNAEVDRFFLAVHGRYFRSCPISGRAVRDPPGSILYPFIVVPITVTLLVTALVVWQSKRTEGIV
# EDG5, sequence (O95136 whole entry): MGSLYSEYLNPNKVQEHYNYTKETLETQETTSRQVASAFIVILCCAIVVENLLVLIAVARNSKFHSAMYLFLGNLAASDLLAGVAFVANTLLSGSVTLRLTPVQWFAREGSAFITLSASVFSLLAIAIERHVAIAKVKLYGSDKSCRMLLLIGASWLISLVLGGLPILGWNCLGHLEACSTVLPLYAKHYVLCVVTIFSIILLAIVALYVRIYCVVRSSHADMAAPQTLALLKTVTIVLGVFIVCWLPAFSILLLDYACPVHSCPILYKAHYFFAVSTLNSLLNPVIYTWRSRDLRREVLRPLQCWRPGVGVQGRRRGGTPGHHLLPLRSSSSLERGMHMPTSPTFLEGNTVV
# OPRL1, sequence (P41146 whole entry): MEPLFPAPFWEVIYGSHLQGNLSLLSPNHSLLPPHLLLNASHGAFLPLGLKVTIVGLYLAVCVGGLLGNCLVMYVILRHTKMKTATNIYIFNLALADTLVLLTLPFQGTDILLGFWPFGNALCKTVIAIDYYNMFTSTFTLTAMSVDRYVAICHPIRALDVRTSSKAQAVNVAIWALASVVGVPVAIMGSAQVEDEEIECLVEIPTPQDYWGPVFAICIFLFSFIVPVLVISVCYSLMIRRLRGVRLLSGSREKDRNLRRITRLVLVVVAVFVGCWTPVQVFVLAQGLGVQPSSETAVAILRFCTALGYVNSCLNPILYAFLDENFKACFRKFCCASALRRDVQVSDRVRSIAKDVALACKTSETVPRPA
# GPR35, sequence (Q9HC97 whole entry): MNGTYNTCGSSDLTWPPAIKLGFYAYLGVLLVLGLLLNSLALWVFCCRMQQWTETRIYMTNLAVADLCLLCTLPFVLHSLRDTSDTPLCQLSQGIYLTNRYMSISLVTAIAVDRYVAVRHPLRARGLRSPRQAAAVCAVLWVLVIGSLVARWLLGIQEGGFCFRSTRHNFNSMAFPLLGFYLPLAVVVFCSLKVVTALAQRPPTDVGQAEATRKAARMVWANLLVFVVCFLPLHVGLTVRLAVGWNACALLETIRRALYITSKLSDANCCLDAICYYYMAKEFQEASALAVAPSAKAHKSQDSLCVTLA
# CXCR6, sequence (O00574 whole entry): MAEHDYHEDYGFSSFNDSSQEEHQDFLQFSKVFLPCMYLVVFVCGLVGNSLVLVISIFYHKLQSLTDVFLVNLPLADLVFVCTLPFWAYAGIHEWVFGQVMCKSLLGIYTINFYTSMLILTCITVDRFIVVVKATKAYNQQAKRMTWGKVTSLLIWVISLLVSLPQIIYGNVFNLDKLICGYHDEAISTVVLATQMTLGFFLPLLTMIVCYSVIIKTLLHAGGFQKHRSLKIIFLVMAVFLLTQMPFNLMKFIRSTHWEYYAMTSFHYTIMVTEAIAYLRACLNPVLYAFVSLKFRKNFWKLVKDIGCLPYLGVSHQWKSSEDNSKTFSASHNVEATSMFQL
# HRH1, sequence (P35367 whole entry): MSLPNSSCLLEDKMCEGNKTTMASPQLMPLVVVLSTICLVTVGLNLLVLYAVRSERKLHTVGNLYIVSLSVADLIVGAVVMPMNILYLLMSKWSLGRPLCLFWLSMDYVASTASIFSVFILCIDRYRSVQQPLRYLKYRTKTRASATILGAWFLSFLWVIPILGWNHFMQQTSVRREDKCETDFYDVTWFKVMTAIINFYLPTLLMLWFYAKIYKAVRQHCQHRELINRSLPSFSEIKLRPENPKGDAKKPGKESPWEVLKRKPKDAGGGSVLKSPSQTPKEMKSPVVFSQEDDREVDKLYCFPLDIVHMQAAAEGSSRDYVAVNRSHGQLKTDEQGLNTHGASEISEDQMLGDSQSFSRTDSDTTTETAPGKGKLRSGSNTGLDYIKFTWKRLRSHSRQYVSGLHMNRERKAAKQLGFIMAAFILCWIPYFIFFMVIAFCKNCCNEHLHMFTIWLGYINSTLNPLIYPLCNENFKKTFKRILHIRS
# OPRK1, sequence (P41145 whole entry): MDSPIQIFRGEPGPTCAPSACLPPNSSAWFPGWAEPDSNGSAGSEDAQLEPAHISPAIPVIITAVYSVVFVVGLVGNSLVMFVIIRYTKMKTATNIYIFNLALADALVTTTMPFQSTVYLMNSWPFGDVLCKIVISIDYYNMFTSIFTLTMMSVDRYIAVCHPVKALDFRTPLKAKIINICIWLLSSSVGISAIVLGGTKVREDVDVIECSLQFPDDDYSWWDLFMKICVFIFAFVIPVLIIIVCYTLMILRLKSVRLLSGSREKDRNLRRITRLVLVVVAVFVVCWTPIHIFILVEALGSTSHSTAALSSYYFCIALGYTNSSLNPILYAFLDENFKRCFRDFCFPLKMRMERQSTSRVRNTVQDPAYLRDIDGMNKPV
# P2RY1, sequence (P47900 whole entry): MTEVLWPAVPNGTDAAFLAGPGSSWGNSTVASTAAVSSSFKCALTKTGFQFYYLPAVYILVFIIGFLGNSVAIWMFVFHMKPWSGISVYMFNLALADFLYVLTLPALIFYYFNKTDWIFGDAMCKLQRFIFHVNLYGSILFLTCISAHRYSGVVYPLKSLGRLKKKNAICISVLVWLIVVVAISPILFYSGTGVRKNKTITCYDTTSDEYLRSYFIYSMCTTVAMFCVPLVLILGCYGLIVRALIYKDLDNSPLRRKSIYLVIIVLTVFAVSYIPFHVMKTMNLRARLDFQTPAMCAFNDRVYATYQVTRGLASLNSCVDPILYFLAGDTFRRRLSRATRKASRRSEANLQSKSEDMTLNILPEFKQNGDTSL
binder,measurement,setting,value
"QATVGDVNTDRPGLLDLK (also: synthesised on Rink amide resin, C-terminal amide not given here outright) [octadecaneuropeptide (ODN)]","% Activity, arrestin, antagonist mode, 2.5 uM",[1],-38.5%
same,"% Activity, arrestin, antagonist mode, 2.5 uM",[2],-11.2%
same,"% Activity, arrestin, antagonist mode, 2.5 uM",[3],-5.6%
same,"% Activity, arrestin, antagonist mode, 2.5 uM",[4],-12.2%
same,"% Activity, arrestin, antagonist mode, 2.5 uM",[5],-16.6%
same,"% Activity, arrestin, antagonist mode, 2.5 uM",[6],-19%
same,"% Activity, arrestin, antagonist mode, 2.5 uM",[7],-4.5%
same,"% Activity, arrestin, antagonist mode, 2.5 uM",[8],-7.4%
same,"% Activity, arrestin, antagonist mode, 2.5 uM",[9],-6.6%
same,"% Activity, arrestin, antagonist mode, 2.5 uM",[10],-15%
same,"% Activity, arrestin, antagonist mode, 2.5 uM",[11],8.3%
same,"% Activity, arrestin, antagonist mode, 2.5 uM",[12],-17%
same,"% Activity, arrestin, antagonist mode, 2.5 uM",[13],-1.3%
same,"% Activity, arrestin, antagonist mode, 2.5 uM",[14],-1%
same,"% Activity, arrestin, antagonist mode, 2.5 uM",[15],-6.4%
same,"% Activity, arrestin, antagonist mode, 2.5 uM",[16],-22.2%

# — patent publication US20260184748A1 (University of Pennsylvania, published 2026)
